For assay [1], the target named is T1, IL-2 labelled with 125I (human, UniProt P60568, 125I label by the chloramine-T method). The experiment in a line: 125I-IL-2 binding to Lβγ-9 cells at 4° C., Scatchard plot. As for the experimental part: (§1) The radioactivity of ^125I-IL-2 bound or not bound to the cells was determined. The value for the background or the binding radioactivity in the case of addition of unlabelled IL-2 was subtracted from each of the measurements to calculate the binding amounts, the binding ability and the binding affinity of IL-2 to the receptor as determined by a Scatchard plot.

The target of assay [2] is T1, IL-2 labelled with 125I. Nature of the assay: 125I-IL-2 binding to Lαβγ-4 cells at 4° C., Scatchard plot, biphasic, high affinity component. As to the method:
as §1

For assay [3], the target named is T1, IL-2 labelled with 125I. Nature of the assay: 125I-IL-2 binding to Lαβγ-4 cells at 4° C., Scatchard plot, biphasic, low affinity component. As for the experimental part:
as §1

B1: IL-2 receptor β and γ chains on Lβγ-9 cells (L929 cells with IL-2 receptor β and γ chain expression) (receptor)
chain 1: AVNGTSQFTCFYNSRANISCVWSQDGALQDTSCQVHAWPDRRRWNQTCELLPVSQASWACNLILGAPDSQKLTTVDIVTLRVLCREGVRWRVMAIQDFKPFENLRLMAPISLQVVHVETHRCNISWEISQASHYFERHLEFEARTLSPGHTWEEAPLLTLKQKQEWICLETLTPDTQYEFQVRVKPLQGEFTTWSPWSQPLAFRTKPAALGKDTIPWLGHLLVGLSGAFGFIILVYLLINCRNTGPWLKKVLKCNTPDPSKFFSQLSSEHGGDVQKWLSSPFPSSSFSPGGLAPEISPLEVLERDKVTQLLLQQDKVPEPASLSSNHSLTSCFTNQGYFFFHLPDALEIEACQVYFTYDPYSEEDPDEGVAGAPTGSSPQPLQPLSGEDDAYCTFPSRDDLLLFSPSLLGGPSPPSTAPGGSGAGEERMPPSLQERVPRDWDPQPLGPPTPGVPDLVDFQPPPELVLREAGEEVPDAGPREGVSFPWSRPPGQGEFRALNARLPLNTDAYLSLQELQGQDPTHLV
chain 2: LNTTILTPNGNEDTTADFFLTTMPTDSLSVSTLPLPEVQCFVFNVEYMNCTWNSSSEPQPTNLTLHYWYKNSDNDKVQKCSHYLFSEEITSGCQLQKKEIHLYQTFVVQLQDPREPRRQATQMLKLQNLVIPWAPENLTLHKLSESQLELNWNNRFLNHCLEHLVQYRTDWDHSWTEQSVDYRHKFSLPSVDGQKRYTFRVRSRFNPLCGSAQHWSEWSHPIHWGSNTSKENPFLFALEAVVISVGSMGLIISLLCVYFWLERTMPRIPTLKNLEDLVTEYHGNFSAWSGVSKGLAESLQPDYSERLCLVSEIPPKGGALGEGPGASPCNQHSPYWAPPCYTLKPET
Consider B1, for which the affinity in assay [1], expressed as Kd, was 4.6 nM.

B2: IL-2 receptor α, β and γ chains on Lαβγ-4 cells (L929 with IL-2 receptor α, β and γ chain expression) (receptor)
chain 1: ELCDDDPPEIPHATFKAMAYKEGTMLNCECKRGFRRIKSGSLYMLCTGNSSHSSWDNQCQCTSSATRNTTKQVTPQPEEQKERKTTEMQSPMQPVDQASLPGHCREPPPWENEATERIYHFVVGQMVYYQCVQGYRALHRGPAESVCKMTHGKTRWTQPQLICTGEMETSQFPGEEKPQASPEGRPESETSCLVTTTDFQIQTEMAATMETSIFTTEYQVAVAGCVFLLISVLLLSGLTWQRRQRKSRRTI
chain 2: AVNGTSQFTCFYNSRANISCVWSQDGALQDTSCQVHAWPDRRRWNQTCELLPVSQASWACNLILGAPDSQKLTTVDIVTLRVLCREGVRWRVMAIQDFKPFENLRLMAPISLQVVHVETHRCNISWEISQASHYFERHLEFEARTLSPGHTWEEAPLLTLKQKQEWICLETLTPDTQYEFQVRVKPLQGEFTTWSPWSQPLAFRTKPAALGKDTIPWLGHLLVGLSGAFGFIILVYLLINCRNTGPWLKKVLKCNTPDPSKFFSQLSSEHGGDVQKWLSSPFPSSSFSPGGLAPEISPLEVLERDKVTQLLLQQDKVPEPASLSSNHSLTSCFTNQGYFFFHLPDALEIEACQVYFTYDPYSEEDPDEGVAGAPTGSSPQPLQPLSGEDDAYCTFPSRDDLLLFSPSLLGGPSPPSTAPGGSGAGEERMPPSLQERVPRDWDPQPLGPPTPGVPDLVDFQPPPELVLREAGEEVPDAGPREGVSFPWSRPPGQGEFRALNARLPLNTDAYLSLQELQGQDPTHLV
chain 3: LNTTILTPNGNEDTTADFFLTTMPTDSLSVSTLPLPEVQCFVFNVEYMNCTWNSSSEPQPTNLTLHYWYKNSDNDKVQKCSHYLFSEEITSGCQLQKKEIHLYQTFVVQLQDPREPRRQATQMLKLQNLVIPWAPENLTLHKLSESQLELNWNNRFLNHCLEHLVQYRTDWDHSWTEQSVDYRHKFSLPSVDGQKRYTFRVRSRFNPLCGSAQHWSEWSHPIHWGSNTSKENPFLFALEAVVISVGSMGLIISLLCVYFWLERTMPRIPTLKNLEDLVTEYHGNFSAWSGVSKGLAESLQPDYSERLCLVSEIPPKGGALGEGPGASPCNQHSPYWAPPCYTLKPET
With B2, the values for the Kd in assay [2] and in assay [3] were 0.077 nM and 2.4 nM, respectively.

The values are drawn from patent US5705608, “Human IL-2 receptor γ chain molecule” (Ajinomoto Co., Inc., dated 1998).
